Residue numbers refer to the chain shown, from its start.
Tests used:
[1] = molecular target: T1, CAPRIN-1 protein on the cell surface of human cancer cells (human, UniProt Q14444 2-709); test: flow cytometry on Hep3B, HepG2, SK-Hep-1, SW480; culture supernatant; vs isotype control
T1 construct: whole, on cells; endogenous protein of human cancer cell lines
T1 sequence (looked up): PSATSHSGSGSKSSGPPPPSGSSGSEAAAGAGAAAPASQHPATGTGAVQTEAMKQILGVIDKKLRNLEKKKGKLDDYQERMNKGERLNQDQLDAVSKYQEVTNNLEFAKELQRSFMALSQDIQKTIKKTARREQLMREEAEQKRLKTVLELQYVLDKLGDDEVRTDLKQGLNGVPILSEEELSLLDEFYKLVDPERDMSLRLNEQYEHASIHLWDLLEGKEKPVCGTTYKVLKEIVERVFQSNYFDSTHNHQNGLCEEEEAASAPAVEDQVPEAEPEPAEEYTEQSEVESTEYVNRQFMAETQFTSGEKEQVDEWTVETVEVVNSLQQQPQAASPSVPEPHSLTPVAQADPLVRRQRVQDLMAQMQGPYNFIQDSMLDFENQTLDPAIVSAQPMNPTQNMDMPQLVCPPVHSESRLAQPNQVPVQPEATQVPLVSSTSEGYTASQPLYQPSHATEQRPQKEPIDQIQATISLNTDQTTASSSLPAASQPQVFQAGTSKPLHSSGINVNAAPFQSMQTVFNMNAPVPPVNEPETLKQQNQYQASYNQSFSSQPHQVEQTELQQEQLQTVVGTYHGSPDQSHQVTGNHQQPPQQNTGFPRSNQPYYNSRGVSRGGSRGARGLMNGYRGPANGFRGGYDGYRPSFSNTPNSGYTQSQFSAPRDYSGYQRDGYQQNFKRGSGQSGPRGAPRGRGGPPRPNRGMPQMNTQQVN
Procedure: Subsequently, four liver cancer cell lines (Hep3 GB, HepG2, SK-Hep-1, and SW480), which were confirmed to express a CAPRIN-1 gene, were investigated for whether or not a CAPRIN-1 protein is expressed on the surfaces of these cells. 1×10⁶ cells of each cell line were centrifuged with a 1.5-mL micro centrifugation tube. To the cells was added the culture supernatant (100 μL) containing any of mouse monoclonal antibodies #1 to #22 against a CAPRIN-1 protein reacting to cancer cell surface produced in Example 4 and mouse-chicken chimeric antibodies #1 to #3 against a CAPRIN-1 protein produced in the above (2), followed by being left to stand on ice for 1 hour. After washing with PBS, the cells were suspended in a FITC-labeled goat anti-mouse IgG antibody (manufactured by Invitrogen Corporation) diluted by 500-fold with PBS containing 0.1% FBS, followed by being left to stand on ice for 1 hour. After washing with PBS, the fluorescence intensity was measured with FACS Calibur available from Becton, Dickinson and Company. Separately, as a control, the same procedure as in above was performed using an iso-type control antibody, instead of the culture supernatants containing the mouse monoclonal antibodies #1 to #22 against a CAPRIN-1 protein and the mouse-chicken chimeric antibodies #1 to #3. As a result, the fluorescence intensity in the cells to which any of the monoclonal antibodies #1 to #22 and the mouse-chicken chimeric antibodies #1 to #3 was added was 20% or more higher than that in the control in every case. Specifically, in the case of using mouse-chicken chimeric antibody #1, the fluorescence intensity was enhanced by 200% or more in both SK-Hep-1 and Hep3B. […] The rate of increase in the fluorescence intensity is represented by the rate of increase in the mean fluorescence intensity (MFI value) in each cell and is calculated by the following calculation formula: […]

[2] = molecular target: T1, CAPRIN-1 protein on the cell surface of …; test: cell-based or functional assay

B1: mouse monoclonal antibody #6 (antibody)
chain 1: DAELVKPGASVKISCKASGYTFTDHSIHWVQQKPEQGLEWIGYISPGNGNIKYNEKFKGKATLTADKSSSTAYMQLNSLTSEDSAVYFCKRSLGRGGPYYFDYWGQGTTVTVSS
chain 2: DIVLTQAAPSLPVTPGESVSISCRSSKSLLHSNGNTYLYWFLQRPGQSPQLLIYRMSNLASGVPDRFSGSGSGTAFTLRISRVEAEDVGVYYCMQHREYPVTFGSGPN
rate of increase in mean fluorescence intensity [1]: ≥ 20% | cytotoxicity (ADCC, 51Cr release) on SK-Hep-1 [2]: ≥ 12%

B2: mouse monoclonal antibody #8 (antibody, V domains shown)
VH: GGGLVKPGGSLKLSCAASGFAFSSYDMSWIRQTPEKRLEWVAYISSGAGSTYYPDTVKGRFTVSRDNAKNTLYLQMSSLKSEDTAMYYCARHFYRFDYWGQGTTVTVSS
VL: SIVMTQTPKFLLVSAGDRITITCKASQSVSNDVAWYQQKPGQSPKLLIYYASNRYTGVPDRFTGSGYGTDFTFTISTVQAEDLAVYFCQQDDRFPLTFGAGPS
notes: mouse hybridoma antibody; also called anti-CAPRIN-1 monoclonal antibody #8
rate of increase in mean fluorescence intensity [1]: ≥ 20% | cytotoxicity (ADCC, 51Cr release) on SK-Hep-1 [2]: ≥ 12%

B3: human-chicken chimeric antibody #2 (antibody, human IgG1, kappa, V domains shown)
VH: AVTLDESGGGLQTPGGGLSLVCKASGFTFSSFDMGWVRQAPGKGLEFVAQINDAGSRTWYATAVKGRATISRDNGQTTVRLQLNNLRAEDTGTYYCTRGSGYVGAGAIDAWGHGTEVIVSA
VL: AALTQPSSVSANPGETVKITCSGGSGYYGWYQQQKSPGSAPVTVIYQNDKRPSDIPSRFSGSGSGSTNTLTITGVQAEDEAVYFCGRYDSTDSGIFGAGTTLTVLT
cytotoxicity (ADCC, 51Cr release) on SK-Hep-1 [2]: ≥ 12%

B4: human-mouse chimeric anti-CAPRIN-1 antibody #30 (antibody)
heavy: not shown
light: DVQITQSPSYLAASPGETITINCRASKSISKYLAWYQEKPGKTNKLLIYSGSTLQSGIPSRFSGSGSGTDFTLTISSLEPEDFAMYYCQQHNEYPYTFGGGTKLEIKRTVAAPSVFIFPPSDEQLKSGTASVVCLLNNFYPREAKVQWKVDNALQSGNSQESVTEQDSKDSTYSLSSTLTLSKADYEKHKVYACEVTHQGLSSPVTKSFNRGEC
cytotoxicity (ADCC, 51Cr release, human NK cells) on Hep3B, HepG2, SK-Hep-1, SW480 [2]: ≥ 20%

B5: human-mouse chimeric anti-CAPRIN-1 antibody #31 (antibody, human IgG1, kappa)
heavy: not shown
light: B4 light with Y96W
cytotoxicity (ADCC, 51Cr release, human NK cells) on Hep3B, HepG2, SK-Hep-1, SW480 [2]: ≥ 20%

B6: human-mouse chimeric anti-CAPRIN-1 antibody #34 (antibody, human IgG1, kappa, V domains shown)
VH: GAELVRPGTSVKVSCKASVYAFTNYLIEWVKQRPGQGLEWIGVINPKSGGTKYNEKFRGKATLTADKSSSTAYMQLSSLTSGDSAVYFCAITGTDYWGQGTTLTVSS
VL: QGTRCDIQMTQTTSSLSASLGDRVTISCSASQGINNYLNWYQQKPDGTVKLLIYYTSSLRSGVPSRFSGSGSGTDYSLTISNLEPEDVATYYCQQYSKLPRTFGGGTKLEIKR
cytotoxicity (ADCC, 51Cr release, human NK cells) on Hep3B, HepG2, SK-Hep-1, SW480 [2]: ≥ 20%

B7: human-mouse chimeric anti-CAPRIN-1 antibody #36 (antibody, human IgG1, kappa)
heavy: not shown
light: QDELSNPVTSGESVSISCRSSKSLLYKDGKTYLNWFLQRPGQSPQLLIYLMSTRASGVSDRFSGSGSGTDFTLEISRVKAEDVGVYYCQQLVEDPLTFGAGTKLELKRTVAAPSVFIFPPSDEQLKSGTASVVCLLNNFYPREAKVQWKVDNALQSGNSQESVTEQDSKDSTYSLSSTLTLSKADYEKHKVYACEVTHQGLSSPVTKSFNRGEC
cytotoxicity (ADCC, 51Cr release, human NK cells) on Hep3B, HepG2, SK-Hep-1, SW480 [2]: ≥ 20%

B8: human-mouse chimeric anti-CAPRIN-1 antibody #23 (antibody, human IgG1, kappa, V domains shown)
VH: GGGLVKPGGSLKLSCAASGFTFSSYGMSWVRQTPEKRLEWVATISSGGSYTYYPDSVKGRFTISRDNAKNTLYLQMSSLRSEDTAMYYCASLASYYFDYWGQGTTLTVSS
VL: GARCDVQMIQSPSSLSASLGDIVTMTCQASQGTSINLNWFQQKPGKAPKLLIYGASSLEDGVPSRFSGSCFGTDFTLTISSLEDEDMATYFCLQHSYLPPLTFGAGTKLELKR
ADCC activity on Hep3B, HepG2, SK-Hep-1, SW480 [2]: ≥ 20%

B9: human-mouse chimeric anti-CAPRIN-1 antibody #24 (antibody, human IgG1, kappa, V domains shown)
VH: B8 VH
VL: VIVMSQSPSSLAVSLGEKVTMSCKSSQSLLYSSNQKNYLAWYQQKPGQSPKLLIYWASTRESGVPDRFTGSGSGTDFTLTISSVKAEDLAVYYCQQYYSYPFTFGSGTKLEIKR
ADCC activity on Hep3B, HepG2, SK-Hep-1, SW480 [2]: ≥ 20%

B10: human-mouse chimeric anti-CAPRIN-1 antibody #25 (antibody, human IgG1, kappa, V domains shown)
VH: GPGLVQPSQSLSITCTVSGFSLTTYDLHWVRQSPGKGLEWLGVIWSGGSTDYNAAFISRLSISKDNSKSQVFFKMNSLQANDTAIYYCARNYGYSAWFAYWGQGTLVTVSA
VL: DVLMTQTPLSLPVSLGDQASISCRSSQSIVHSNGNTYLEWYLQKPGQSPKLLIYKVSNRFSGVPDRFSGSGSGTDFTLKISRVEAEDLGVYYCFQGSHVPLTFGAGTKLELKR
ADCC activity on Hep3B, HepG2, SK-Hep-1, SW480 [2]: ≥ 20%

B11: human-mouse chimeric anti-CAPRIN-1 antibody #26 (antibody, human IgG1, kappa)
heavy: not shown
light: PASSSDVLMTQTPLSLPVRLGDQSSISCRSSQSIVHSNGNTYLEWYLQKPGQSPKLLIYKVSNRFSGVPDRFSGSGSGTDFTLKISRVEPEDLGVYYCFQGSHVPYTSEGDQAEIKLATVAAPSVFIFPPSDEQLKSGTASVVCLLNNFYPREAKVQWKVDNALQSGNSQESVTEQDSKDSTYSLSSTLTLSKADYEKHKVYACEVTHQGLSSPVTKSFNRGEC
ADCC activity on Hep3B, HepG2, SK-Hep-1, SW480 [2]: ≥ 20%

B12: human-mouse chimeric anti-CAPRIN-1 antibody #27 (antibody, human IgG1, kappa, V domains shown)
VH: GGGLVQPGGSMRLSCVASGFTFSNSWFNWVRQSPEKGLEWVAEIRLTSDNYAIYYAESVKGRFTISRDDSKSSVYLQMNNLRAEDTGIYYCTRPETARATFAYWGQGTTVTVSS
VL: B10 VL with L51V, S57F, L101R, A105G, E110N, L111Q, K112T, R113G
ADCC activity on Hep3B, HepG2, SK-Hep-1, SW480 [2]: ≥ 20%

B13: human-mouse chimeric anti-CAPRIN-1 antibody #28 (antibody, human IgG1, kappa, V domains shown)
VH: GPDLVKPGASVKISCKASGYSFTAYYMHWVKQSHGKSLEWIGRVNPNNGGTTYNQKFKGKAILTVDKSSSTAYMELRSLTFEDSAVYYCARRIYYGYFDYWGQGTTVTVSS
VL: AFFAVSLGQRATISCKASQSVDYDGDSYMNWYQQKPGQPPKLLIYVASNLESGVPARFSGSGSGTDFTLNIHPVEEEDAATYYCQQSNEDPYTFGGGTKLEIKQ
ADCC activity on Hep3B, HepG2, SK-Hep-1, SW480 [2]: ≥ 20%

B14: human-mouse chimeric anti-CAPRIN-1 antibody #29 (antibody, human IgG1, kappa)
heavy: not shown
light: GTCGDIVMSQSPSSLAVSAGEKVTMSCKSSQSLLNSRTRKNYLAWVQHKPGQSPRLLIYWASTRESGVPDRFTGSGSGTDFTLTISSVQAEDLAVYYCRQSYNLVTFGAGPSTVAAPSVFIFPPSDEQLKSGTASVVCLLNNFYPREAKVQWKVDNALQSGNSQESVTEQDSKDSTYSLSSTLTLSKADYEKHKVYACEVTHQGLSSPVTKSFNRGEC
ADCC activity on Hep3B, HepG2, SK-Hep-1, SW480 [2]: ≥ 20%

B15: mouse-chicken chimeric antibody #1 (antibody, mouse IgG1, V domains shown)
VH: AVTLDESGGGLQMSRGGLSLVCKASGFDFSSYQMNWIRQAPGKGLEFVAAINKFGNSTGHGAAVKGRVTISRDNGQSTVRLQLNNLRAEDTAIYFCTKHAYGYCGSGTWCAAGEIDAWGHGTEVIVSS
VL: QAASTQPSSVSANPGETVEITCSGGGSYSYGWFQQKSPGSAPVTVIYYNNKRPSDIPSRFSGSKSGSTGTLTITGVQADDEAVYYCGSGDSTDTAVFGAGTTLTVLG
rate of increase in mean fluorescence intensity [1]: ≥ 20%

B16: mouse-chicken chimeric antibody #2 (antibody, mouse IgG1, V domains shown)
VH: AVTLDESGGGLQTPGGGLSLVCKASGFTFSSFDMGWVRQAPGKGLEFVAQINDAGSRTWYATAVKGRATISRDNGQTTVRLQLNNLRAEDTGTYYCTRGSGYVGAGAIDAWGHGTEVIVS
VL: AALTQPSSVSANPGETVKITCSGGSGYYGWYQQQKSPGSAPVTVIYQNDKRPSDIPSRFSGSGSGSTNTLTITGVQAEDEAVYFCGRYDSTDSGIFGAGTTLTVL
rate of increase in mean fluorescence intensity [1]: ≥ 20%

B17: mouse-chicken chimeric antibody #3 (antibody, mouse IgG1, V domains shown)
VH: AVTLDESGGGLQTPGGALSLVCKASGFTFSGYDMLWVRQAPGKGLEWVAGIGSTGGGTDYGAAVKGRATISRDNGQSTVRLQLNNLRAEDTATYYCAKVAGGCNSGYCRDSPGSIDAWGHGTEVIVS
VL: AVTQQPASVSANPGETVKITCSGGGSRNYYGWYQQKSPGSVPVTVIYYDDQRPSNIPSRFSGALSGSTSTLTITGVQADDEAVYFCGSADSNTYEGSFGAGTTLTVL
rate of increase in mean fluorescence intensity [1]: ≥ 20%
